± gives the uncertainty stated by the source.

This data set in a line: protein stability index of a GFP-peptide fusion (yeast GPS) (PSI 1-4); higher = more stable; sorted into four equal gates, so the index is relative within each strain. The essentials:
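For each peptide, the protein stability index sums the read frequency in every gate after multiplying it by the gate number. Read frequencies came from plasmids that were PCR-amplified from each gate and Illumina-sequenced, with reads assigned to strains by barcodes. The gates were four equal bins of GFP/Cherry fluorescence ratio applied to mid-log yeast in leucine-free medium carrying a pooled library of tiled 17-residue yeast protein peptides fused downstream of GFP on a Cherry-expressing plasmid.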

Turning to SKKDFKIIDNPKSFLKK [YMR129W/POM152], the protein stability index by setting is: (doa10∆) 3.05 ± 0.082; (pdr5∆) 3.35 ± 0.095; (san1∆) 3.08 ± 0.07; (ubr1∆) 3.17 ± 0.092.

Turning to SKKKKNIKKKDTKDALS [RPC53], the protein stability index stood at 3.3 ± 0.17 (doa10∆), 3.5 ± 0.14 (pdr5∆), 3.21 ± 0.089 (san1∆) and 3.3 ± 0.21 (ubr1∆).

Consider SKKRFAAIWTLCKTKMV [RPO21], for which the protein stability index (doa10∆) came to 1.75 ± 0.048, the protein stability index (pdr5∆) was found to be 1.53 ± 0.049, the protein stability index (san1∆) came out at 1.24 ± 0.099 and the protein stability index (ubr1∆) stood at 1.57 ± 0.032.

As to SKKRKLNSLTNLLSKRN [SNM1], the protein stability index runs as follows: (doa10∆) 2.87 ± 0.071; (pdr5∆) 2.99 ± 0.059; (san1∆) 2.84 ± 0.055; (ubr1∆) 2.81 ± 0.057.

Sequence SKKVLECLPAEGHDWKA [DIS3] registered a protein stability index (doa10∆) of 1.65 ± 0.13, a protein stability index (pdr5∆) of 1.69 ± 0.13, a protein stability index (san1∆) of 1.47 ± 0.1 and a protein stability index (ubr1∆) of 1.55 ± 0.07.

In the case of SKKYQLADWRIRPLSKP [RRP6], the protein stability index runs as follows: (doa10∆) 1.68 ± 0.048; (pdr5∆) 1.83 ± 0.048; (san1∆) 1.3 ± 0.088; (ubr1∆) 1.99 ± 0.049.

Regarding SKLAEEKIRAAGGVVEL [RPL28], the protein stability index runs as follows: (doa10∆) 2.85 ± 0.04; (pdr5∆) 3.08 ± 0.034; (san1∆) 3.09 ± 0.037; (ubr1∆) 2.943 ± 0.025.

SKNPLSLTEATKTNVDN [YLR335W/NUP2] had a protein stability index (doa10∆) of 3.01 ± 0.065, a protein stability index (pdr5∆) of 3.01 ± 0.069, a protein stability index (san1∆) of 3.28 ± 0.11 and a protein stability index (ubr1∆) of 3.31 ± 0.092.

Take SKRVYKILSPTMYMEVY [CDC53]: the protein stability index is, setting by setting: (doa10∆) 2.29 ± 0.075; (pdr5∆) 2.68 ± 0.098; (san1∆) 2.15 ± 0.076; (ubr1∆) 2.63 ± 0.092.

As to SKSAFSFGSKPTGKEEG [YJL041W/NSP1], the protein stability index is, setting by setting: (doa10∆) 3.26 ± 0.058; (pdr5∆) 3.34 ± 0.052; (san1∆) 3.36 ± 0.069; (ubr1∆) 3.16 ± 0.067.

Take SKSDSDSEERDPKLEKC [ITC1]: the protein stability index is 3 ± 0.14 (doa10∆), 2.97 ± 0.13 (pdr5∆), 2.62 ± 0.11 (san1∆) and 1.84 ± 0.058 (ubr1∆).

SKSGRIFALVFSSNERY [RPN13]: the protein stability index came out at 2.45 ± 0.1 (doa10∆), 2.74 ± 0.086 (pdr5∆), 2.28 ± 0.11 (san1∆) and 2.62 ± 0.049 (ubr1∆).

With SKTDNIEDPNLSSNITF [YMR153W/NUP53], the protein stability index was 2.84 ± 0.084 (doa10∆), 2.81 ± 0.08 (pdr5∆), 3 ± 0.064 (san1∆) and 3.27 ± 0.073 (ubr1∆).

On to SKVASSLVIIILVKRYS [ECM29], for which the protein stability index runs as follows: (doa10∆) 1.85 ± 0.054; (pdr5∆) 1.44 ± 0.042; (san1∆) 1.71 ± 0.094; (ubr1∆) 2.12 ± 0.051.

As to SKVQFDAKTSYPNEVLK [REC8], the protein stability index runs as follows: (doa10∆) 2.77 ± 0.05; (pdr5∆) 3.08 ± 0.072; (san1∆) 3.06 ± 0.059; (ubr1∆) 3.04 ± 0.067.

Consider SKVREEVGDVCINELDN [RPO31], for which the protein stability index is, setting by setting: (doa10∆) 3.15 ± 0.095; (pdr5∆) 2.32 ± 0.06; (san1∆) 2.84 ± 0.075; (ubr1∆) 3.18 ± 0.065.

For SKVTKKHGAKKVAKRTK [RPL27B], the protein stability index worked out at 3.42 ± 0.27 (doa10∆), 3.02 ± 0.2 (pdr5∆), 3.27 ± 0.2 (san1∆) and 3.26 ± 0.22 (ubr1∆).

For SKVYFNNQSKEKADYED [RPN12], the protein stability index runs as follows: (doa10∆) 2.56 ± 0.076; (pdr5∆) 2.64 ± 0.067; (san1∆) 2.67 ± 0.098; (ubr1∆) 2.48 ± 0.054.

As for SKVYYNLGEYESAVKYA [RPN2], the protein stability index runs as follows: (doa10∆) 2.62 ± 0.16; (pdr5∆) 2.9 ± 0.093; (san1∆) 2.8 ± 0.084; (ubr1∆) 2.84 ± 0.056.

On to SKYFIIDSFFLYVLPSF [YMR129W/POM152], for which the protein stability index amounted to 1.55 ± 0.045 (doa10∆), 1.65 ± 0.035 (pdr5∆), 1.75 ± 0.06 (san1∆) and 1.23 ± 0.028 (ubr1∆).

For the sequence SLADNEIALKGLESLLN [YCS4], the protein stability index stood at 2.81 ± 0.056 (doa10∆), 2.5 ± 0.067 (pdr5∆), 2.68 ± 0.075 (san1∆) and 2.94 ± 0.073 (ubr1∆).

Take SLAPEADLDSLIIRNDS [RPT3]: the protein stability index was 2.92 ± 0.11 (doa10∆), 3.01 ± 0.08 (pdr5∆), 2.77 ± 0.055 (san1∆) and 2.82 ± 0.071 (ubr1∆).

SLDQGDAEEDSQVENRV [SMC4] gave a protein stability index (ubr1∆) of 2.83 ± 0.17.

SLDSCTAAFTAMICEAK [YJR042W/NUP85]: the protein stability index was determined as 2.79 ± 0.13 (doa10∆), 2.51 ± 0.11 (pdr5∆), 2.99 ± 0.081 (san1∆) and 2.81 ± 0.096 (ubr1∆).

For SLEHELKRSTELLETVS [YIL149C/MLP2], the protein stability index (doa10∆) is 2 ± 0.057, the protein stability index (pdr5∆) was 2.21 ± 0.054, the protein stability index (san1∆) came to 2.25 ± 0.071 and the protein stability index (ubr1∆) stood at 2.17 ± 0.037.

For SLFGSIGDDGYDLLIST [SRB5], the protein stability index is, setting by setting: (doa10∆) 2.17 ± 0.087; (pdr5∆) 2.07 ± 0.14; (san1∆) 3.05 ± 0.071; (ubr1∆) 3.5 ± 0.11.

Consider SLGDGTNYYLTTARNDL [CSL4], for which the protein stability index came to 2.66 ± 0.068 (doa10∆), 2.71 ± 0.068 (pdr5∆), 2.83 ± 0.049 (san1∆) and 2.91 ± 0.1 (ubr1∆).

For SLGHQTSLITAVYGPRS [MTR3], the protein stability index was 2.54 ± 0.052 (doa10∆), 2.24 ± 0.056 (pdr5∆), 2.63 ± 0.061 (san1∆) and 1.81 ± 0.053 (ubr1∆).

On to SLHTKNVFGTLQRHSGI [YLR018C/POM34], for which the protein stability index was 2.56 ± 0.066 (doa10∆), 2.5 ± 0.071 (pdr5∆), 2.31 ± 0.15 (san1∆) and 2.97 ± 0.06 (ubr1∆).

SLIEDFVDGIANSKKST [SRB7]: the protein stability index was 3.29 ± 0.14 (doa10∆), 3.35 ± 0.092 (pdr5∆), 3.03 ± 0.062 (san1∆) and 3.04 ± 0.062 (ubr1∆).

As for SLKGVDPKFRRNHKHAL [RPL29], the protein stability index came to 1.45 ± 0.068 (doa10∆), 1.77 ± 0.077 (pdr5∆), 1.78 ± 0.082 (san1∆) and 1.78 ± 0.12 (ubr1∆).

As for SLKNVTEKNREIYKQLN [YIL149C/MLP2], the protein stability index was determined as 3.31 ± 0.097 (doa10∆), 2.76 ± 0.11 (pdr5∆), 3.18 ± 0.056 (san1∆) and 2.99 ± 0.05 (ubr1∆).

Regarding SLKTKLNSNIRAGVTIP [SNF5], the protein stability index is, setting by setting: (doa10∆) 2.6 ± 0.077; (pdr5∆) 2.72 ± 0.051; (san1∆) 2.36 ± 0.066; (ubr1∆) 2.63 ± 0.047.

As to SLLTLVGSVTYQVDEDV [YJL039C/NUP192], the protein stability index came out at 1.8 ± 0.1 (doa10∆), 1.67 ± 0.13 (pdr5∆), 2.66 ± 0.098 (san1∆) and 1.23 ± 0.14 (ubr1∆).

Consider SLNLGIGIVEIAHENEQ [SRB8], for which the protein stability index is, setting by setting: (doa10∆) 1.43 ± 0.11; (pdr5∆) 2.07 ± 0.084; (san1∆) 2.52 ± 0.11; (ubr1∆) 2.08 ± 0.087.

In the case of SLNPALQEKISTELNNK [SWI1], the protein stability index reads like this: (doa10∆) 2.8 ± 0.11; (pdr5∆) 3.05 ± 0.097; (san1∆) 3.29 ± 0.069; (ubr1∆) 3.27 ± 0.083.

These data come from the supplement of paper PMC9732359.
